Data as given in article doi:10.1101/2021.05.27.445985.

Biological target: Cy5-labeled human neutrophil peptide 1 (HNP1) (human)
Assay: fluorescence polarisation

Work on “Bovine serum albumin (from UniProt P02769 25-607) (natural protein)” yielded a Kd of 3.4 µM.
